How the values were obtained:
[1] = molecular target: GFP-Rac1 fusion (EGFP mutant, 6His construct) bound to GTPγS [GFP: P42212]; experiment: FRET in solution at saturating (1 micromolar) Alexa-PBD, GFP-Rac1 loaded with varied GTPγS
[2] = molecular target: GFP-Rac1 fusion (EGFP mutant, 6His construct) bound to GTPγS [GFP: P42212]; experiment: FRET titration in solution: 200 nM GFP-Rac1-GTPγS, varied Alexa-PBD, Alexa/GFP emission ratio fit to Y=A*X/(Kd+X)

fold change of corrected Alexa/GFP emission ratio [1]: 4 fold
Kd [2]: 1100 nM
Substance: Alexa-PBD (PBD, fragment of human PAK1, residues 65-150, with a single cysteine added in the penultimate N-terminal position, C-terminal 6His fusion, labeled with Alexa 546) (from UniProt Q13153 65-150)
